In the assay the target is Protease Mixtures. The assay is described as follows: cell-based or functional assay.

B1: Variant A2M, bait region SEQ ID NO 127, P01023 24-1474 (protein)
chain: SVSGKPQYMVLVPSLLHTETTEKGCVLLSYLNETVTVSASLESVRGNRSLFTDLEAENDVLHCVAFAVPKSSSNEEVMFLTVQVKGPTQEFKKRTTVMVKNEDSLVFVQTDKSIYKPGQTVKFRVVSMDENFHPLNELIPLVYIQDPKGNRIAQWQSFQLEGGLKQFSFPLSSEPFQGSYKVVVQKKSGGRTEHPFTVEEFVLPKFEVQVTVPKIITILEEEMNVSVCGLYTYGKPVPGHVTVSICRKYSDASDCHGEDSQAFCEKFSGQLNSHGCFYQQVKTKVFQLKRKEYEMKLHTEAQIQEEGTVVELTGRQSSEITRTITKLSFVKVDSHFRQGIPFFGQVRLVDGKGVPIPNKVIFIRGNEANYYSNATTDEHGLVQFSINTTNVMGTSLTVRVNYKDRSPCYGYQWVSEEHEEAHHTAYLVFSPSKSFVHLEPMSHELPCGHTQTVQAHYILNGGTLLGLKKLSFYYLIMAKGGIVRTGTHGLLVKQEDMKGHFSISIPVKSDIAPVARLLIYAVLPTGDVIGDSAKYDVENCLANKVDLSFSPSQSLPASHAHLRVTAAPQSVCALRAVDQSVLLMKPDAELSASSVYNLLPEKDLTGFPGPLNDQDDEDCINRHNVYINGITYTPVSSTNEKDMYSFLEDMGLKAFTNSKIRKPKMCPQLEQYEMHGPIPENFFGVSELEGRGSEAIPMSIPTEGEGEGEGVEEPHTKLRKYFPETWIWDLVVVNSAGVAEVGVTVPDTITEWKAGAFCLSEDAGLGISSTASLRAFQPFFVELTMPYSVIRGEAFTLKATVLNYLPKCIRVSVQLEASPAFLAVPVEKEQAPHCICANGRQTVSWAVTPKSLGNVNFTVSAEALESQELCGTEVPSVPEHGRKDTVIKPLLVEPEGLEKETTFNSLLCPSGGEVSEELSLKLPPNVVEESARASVSVLGDILGSAMQNTQNLLQMPYGCGEQNMVLFAPNIYVLDYLNETQQLTPEIKSKAIGYLNTGYQRQLNYKHYDGSYSTFGERYGRNQGNTWLTAFVLKTFAQARAYIFIDEAHITQALIWLSQRQKDNGCFRSSGSLLNNAIKGGVEDEVTLSAYITIALLEIPLTVTHPVVRNALFCLESAWKTAQEGDHGSHVYTKALLAYAFALAGNQDKRKEVLKSLNEEAVKKDNSVHWERPQKPKAPVGHFYEPQAPSAEVEMTSYVLLAYLTAQPAPTSEDLTSATNIVKWITKQQNAQGGFSSTQDTVVALHALSKYGAATFTRTGKAAQVTIQSSGTFSSKFQVDNNNRLLLQQVSLPELPGEYSMKVTGEGCVYLQTSLKYNILPEKEEFPFALGVQTLPQTCDEPKAHTSFQISLSVSYTGSRSASNMAIVDVKMVSGFIPLKPTVKMLERSNHVSRTEVSSNHVLIYLDKVSNQTLSLFFTVLQDVPVRDLKPAIVKVYDYYETDEFAIAEYNAPCSKDLGNADYKDDDDKGASHHHHHH
For B1, the Protease Inhibition (% of WT); Protease Mixtures, Collagen Substrate is 180 % of WT and the Protease Inhibition (% of WT); Protease Mixtures, IGD Substrate was 229 % of WT.

For the origin of these results see patent US20230250154A1.
